{"source": "IntAct's records for PubMed 14613973", "parents": {"B1": {"name": "Fibroblast growth factor receptor 3 (Homo sapiens), P22607-1 (parent)", "chain": "MGAPACALALCVAVAIVAGASSESLGTEQRVVGRAAEVPGPEPGQQEQLVFGSGDAVELSCPPPGGGPMGPTVWVKDGTGLVPSERVLVGPQRLQVLNASHEDSGAYSCRQRLTQRVLCHFSVRVTDAPSSGDDEDGEDEAEDTGVDTGAPYWTRPERMDKKLLAVPAANTVRFRCPAAGNPTPSISWLKNGREFRGEHRIGGIKLRHQQWSLVMESVVPSDRGNYTCVVENKFGSIRQTYTLDVLERSPHRPILQAGLPANQTAVLGSDVEFHCKVYSDAQPHIQWLKHVEVNGSKVGPDGTPYVTVLKTAGANTTDKELEVLSLHNVTFEDAGEYTCLAGNSIGFSHHSAWLVVLPAEEELVEADEAGSVYAGILSYGVGFFLFILVVAAVTLCRLRSPPKKGLGSPTVHKISRFPLKRQVSLESNASMSSNTPLVRIARLSSGEGPTLANVSELELPADPKWELSRARLTLGKPLGEGCFGQVVMAEAIGIDKDRAAKPVTVAVKMLKDDATDKDLSDLVSEMEMMKMIGKHKNIINLLGACTQGGPLYVLVEYAAKGNLREFLRARRPPGLDYSFDTCKPPEEQLTFKDLVSCAYQVARGMEYLASQKCIHRDLAARNVLVTEDNVMKIADFGLARDVHNLDYYKKTTNGRLPVKWMAPEALFDRVYTHQSDVWSFGVLLWEIFTLGGSPYPGIPVEELFKLLKEGHRMDKPANCTHDLYMIMRECWHAAPSQRPTFKQLVEDLDRVLTVTSTDEYLDLSAPFEQYSPGGQDTPSSSSSGDDSVFAHDLLPPAPPSSGGSRT"}}}
{"variants_of": "B1", "conditions": "with fgf1_human FGF1, P05230"}
{"variant": "P250R", "effect of a mutation on the interaction": "increasing interaction strength"}
{"variants_of": "B1", "conditions": "with fgf2_human FGF2, P09038"}
{"variant": "P250R", "effect of a mutation on the interaction": "causing an interaction"}
{"variants_of": "B1", "conditions": "with fgf9_human FGF9, P31371"}
{"variant": "P250R", "effect of a mutation on the interaction": "causing an interaction"}
